Earlier results as cited in publication PMC12017986.
Where two headings read alike, the source gives them in different places.

Columns and labels:
[1] = molecular target: Dynein intermediate chain (IC) (Drosophila melanogaster) (UniProt Q24246)
[2] = molecular target: Swallow (Drosophila melanogaster) (UniProt P40688)
[3] = molecular target: Dynein intermediate chain (IC) (Drosophila melanogaster) (UniProt Q24246); remark: listed apart in the source

Sequence of UniProt Q24246 (Q24246 whole entry): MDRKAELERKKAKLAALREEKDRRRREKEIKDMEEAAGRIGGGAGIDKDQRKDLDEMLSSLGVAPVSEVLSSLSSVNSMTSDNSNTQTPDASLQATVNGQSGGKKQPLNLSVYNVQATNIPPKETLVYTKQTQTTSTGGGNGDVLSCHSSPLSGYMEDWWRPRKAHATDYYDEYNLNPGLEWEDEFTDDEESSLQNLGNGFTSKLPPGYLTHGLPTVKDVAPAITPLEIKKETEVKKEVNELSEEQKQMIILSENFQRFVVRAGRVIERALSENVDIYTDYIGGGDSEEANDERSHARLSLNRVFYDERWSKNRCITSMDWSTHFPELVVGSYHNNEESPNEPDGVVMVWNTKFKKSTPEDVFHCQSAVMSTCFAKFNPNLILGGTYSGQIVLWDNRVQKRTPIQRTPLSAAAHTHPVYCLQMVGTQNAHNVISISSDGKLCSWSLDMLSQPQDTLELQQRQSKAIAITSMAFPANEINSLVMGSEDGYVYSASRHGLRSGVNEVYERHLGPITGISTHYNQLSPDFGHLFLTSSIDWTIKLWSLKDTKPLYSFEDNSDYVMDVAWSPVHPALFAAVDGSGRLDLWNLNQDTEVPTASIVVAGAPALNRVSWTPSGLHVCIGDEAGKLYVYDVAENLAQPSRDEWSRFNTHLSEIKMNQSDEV
Sequence of UniProt P40688 (P40688 whole entry): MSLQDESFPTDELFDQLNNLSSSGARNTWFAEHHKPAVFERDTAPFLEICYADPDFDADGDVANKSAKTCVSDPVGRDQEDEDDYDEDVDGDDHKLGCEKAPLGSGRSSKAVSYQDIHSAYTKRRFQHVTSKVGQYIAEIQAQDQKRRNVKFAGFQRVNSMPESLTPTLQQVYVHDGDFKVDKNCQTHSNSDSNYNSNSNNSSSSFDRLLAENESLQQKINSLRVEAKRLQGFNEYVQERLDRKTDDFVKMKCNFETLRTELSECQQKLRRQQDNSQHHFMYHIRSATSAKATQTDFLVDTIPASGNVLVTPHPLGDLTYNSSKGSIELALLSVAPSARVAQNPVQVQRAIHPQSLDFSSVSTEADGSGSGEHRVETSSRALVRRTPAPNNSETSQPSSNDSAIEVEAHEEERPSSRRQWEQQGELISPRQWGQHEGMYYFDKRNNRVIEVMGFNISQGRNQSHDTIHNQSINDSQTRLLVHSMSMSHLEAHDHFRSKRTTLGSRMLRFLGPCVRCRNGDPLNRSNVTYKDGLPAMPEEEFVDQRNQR

Kd [1]: 8000 nM
Kd [2]: 200 nM
Kd [3]: 130 nM
Substance: LC8 (from UniProt Q24117)
